From article PMC4686876
Read-outs that look alike come from different tables or passages of the source.

Assays:
[1] = molecular target: T1, interferon-gamma (IFNγ) (human) (UniProt P01579); experiment: SPR; conditions: SPR (BIAcore T200, biotinylated aptamer on SA chip), 1x PBS (1 mM KH2PO4, 3 mM Na2HPO4) with 205 mM NaCl final, 0.05% NP-40, pH 7.4, 25 °C, IFNγ 1.25-50 nM
T1 sequence: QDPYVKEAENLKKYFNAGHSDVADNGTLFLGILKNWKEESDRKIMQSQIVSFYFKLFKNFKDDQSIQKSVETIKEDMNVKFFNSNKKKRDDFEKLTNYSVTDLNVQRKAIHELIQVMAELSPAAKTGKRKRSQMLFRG

[2] = molecular target: T1, interferon-gamma (IFNγ) (human); conditions: N = unnatural base Ds at positions 18, 29, 40; SPR (BIAcore T200, biotinylated aptamer on SA chip), 1x PBS (1 mM KH2PO4, 3 mM Na2HPO4) with 205 mM NaCl final, 0.05% NP-40, pH 7.4, 25 °C; IFNγ 1.25-50 nM; cited from earlier work

| Sequence | Kd ([1]; N = unnatural base Ds at positions 28, 39) | Kd ([1]; N = unnatural base Ds at positions 18, 29, 40) | Kd [2] |
| --- | --- | --- | --- |
| CCCGCCCGGGTCCGCGAAGCGGTAGGTNTGGGCTAGGCNGCTGGCGGGCGCGAAGCG [aptamer 57mhGC] | 0.033 nM | – | – |
| TCCACTCGGGTCATTTANTAATGTAGGTNTGGGCTAGGCNGCTAGTGGA [aptamer 49] | – | 0.046 nM | 0.046 nM |
